We go through 1 sequence from publication PMC11374129.

This data set addresses T1, EnvZ (Escherichia coli K12) (UniProt P0AEJ4).
T1 sequence: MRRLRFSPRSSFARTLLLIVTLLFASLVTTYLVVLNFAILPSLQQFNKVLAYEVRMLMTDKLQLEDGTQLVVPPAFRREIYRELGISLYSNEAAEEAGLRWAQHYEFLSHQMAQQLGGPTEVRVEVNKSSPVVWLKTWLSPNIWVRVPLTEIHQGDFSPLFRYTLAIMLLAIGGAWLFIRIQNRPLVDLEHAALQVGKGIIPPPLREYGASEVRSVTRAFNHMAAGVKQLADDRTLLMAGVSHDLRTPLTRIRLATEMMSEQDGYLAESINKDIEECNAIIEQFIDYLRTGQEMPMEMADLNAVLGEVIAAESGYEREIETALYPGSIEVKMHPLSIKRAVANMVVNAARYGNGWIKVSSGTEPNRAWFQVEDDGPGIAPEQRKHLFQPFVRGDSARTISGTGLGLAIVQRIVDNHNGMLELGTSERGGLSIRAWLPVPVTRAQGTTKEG
The experiment in a line: EMSA.

In the case of “CACGGCGTGTTCTTCCGACAACGTTCTTAAAAAAACTTCTCTCTCCCAGGTCACACCAGTCACAGAGATTGGCTGTGAGTGTCGCTGTGCACAAACCGCGCACAGACTCATACAGTCCCGGCGGTTCCGTTCACAACCCACGCCTCATCCCCACCGACCCAACACACACCCCACAGTCATCGCCACCGTCATCCACAACTCCGAC (double strand) [oriC]”, the binding entry is on record as “no binding”.
